Here are results for one sequence from article PMC10293810.

This series concerns the target T1, TREX1 catalytic core (murine) (UniProt Q91XB0).
T1 sequence: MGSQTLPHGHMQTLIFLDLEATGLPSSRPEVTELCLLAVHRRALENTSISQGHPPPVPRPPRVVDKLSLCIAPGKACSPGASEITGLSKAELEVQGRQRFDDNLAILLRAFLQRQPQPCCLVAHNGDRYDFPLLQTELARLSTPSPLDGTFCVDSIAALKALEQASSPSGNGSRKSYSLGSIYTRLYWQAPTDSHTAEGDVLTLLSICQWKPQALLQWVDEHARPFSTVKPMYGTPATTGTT
The series can be described thus: fluorescence polarization. The settings on record: FP with 5 nM ligand at 25 C (some FPCD at 4 C); buffer for MS2-CP (BB6): 100 mM Tris pH 7.5, 10 mM MgCl2, 80 mM KCl, 0.1 mg/mL BSA; other buffers not in ….

The term Kd denotes the equilibrium constant for the complex coming apart. Lower therefore signals a tighter complex. For “GAAGTGCCCGTGACGCGCGCGACGCCAGCCGACGAAGGCGGGACCCAGAGCGCGCGCCGT (double strand) [ds-[F]d(N)60]”, the dissociation constant Kd was 30 nM.
